Read-outs that look alike come from different tables or passages of the source. Where no end group is shown, it is not given here.
Experiments:
[1] = test system: RPA70A (RPA70A181–304); test: Fluorescence polarization anisotropy (FPA) assay, FITC-labeled peptide + RPA70A; format: binding; settings: 50 nM FITC-labeled peptide, 0–150 μM RPA70A, pH 7.4, 25 °C, anisotropy not saturated, not fitted
Procedure: RPA70N1–120 and RPA70A181–304 were expressed and purified as described previously ([5], [30]). ^15N-Labeled RPA70N was also expressed and purified with the same method using M9 medium. All of the synthesized peptides except for the FITC-labeled peptide were purchased from Lugen Sci (Gyeonggi-do, Korea). FITC-labeled peptides were purchased from AnyGen (Gwangju, Korea). Purchased peptides were dissolved in 20 mM HEPES, 100 mM NaCl, 2 mM DTT, pH 7.4, buffer to make a 2 mM stock and stored at −20 °C until use.
For FITC labeling, a 6-aminocaproic acid (6-aminohexanoic acid) spacer was used. […] The emission polarization anisotropy was calculated by referring to a previous publication ([5]). The fluorescence was measured using BioTek Cytation5 and GENE5 software (GIST, Gwangju) with excitation and emission wavelengths of 485 and 528 nm, respectively. […] All experiments were repeated three times, and dissociation constants (Kd) were calculated using the “one site–specific” fitting model of the GraphPad software. The equation used in the fitting is as follows, (Eq. 1) y=Bmax×X/Kd+X where y is the fluorescence anisotropy, Bmax is the maximum specific binding, Kd is the equilibrium binding constant, and X is the concentration of RPA. […] Equilibrium fluorescence measurements were performed in the same way as described above. […]

[2] = test system: RPA70N–BLM peptide complex; test: Competitive FPA assay, unlabeled pmRPA32 peptide against FITC-labeled BLM peptide on RPA70N; format: binding; settings: 0–250 μM unlabeled pmRPA32 peptide; 6 μM (BLM153-165) or 13 μM (BLM290-301) RPA70N; 500 nM FITC-labeled BLM peptide; repeated three times; Fig. S4
Procedure: For FITC labeling, a 6-aminocaproic acid (6-aminohexanoic acid) spacer was used. Increasing concentrations (0–150 μM) of RPA70N or RPA70A were prepared in an assay buffer of 20 mM HEPES, 100 mM NaCl, 2 mM DTT, pH 7.4, in Corning 96-well black flat-bottom plates (polystyrene, nontreated). To each well, FITC-RPA32 peptide was added to a final concentration of 50 nM, and the plates were incubated on a shaker for 1 h at 25 °C. The total volume of the reaction sample was 50 μl. The emission polarization anisotropy was calculated by referring to a previous publication ([5]). The fluorescence was measured using BioTek Cytation5 and GENE5 software (GIST, Gwangju) with excitation and emission wavelengths of 485 and 528 nm, respectively. […] All experiments were repeated three times, and dissociation constants (Kd) were calculated using the “one site–specific” fitting model of the GraphPad software. The equation used in the fitting is as follows, (Eq. 1) y=Bmax×X/Kd+X where y is the fluorescence anisotropy, Bmax is the maximum specific binding, Kd is the equilibrium binding constant, and X is the concentration of RPA. […] Equilibrium fluorescence measurements were performed in the same way as described above. […]
Competitive fluorescence polarization anisotropy of BLM peptide, RPA70N, and pmRPA32 peptide. […]

[3] = biological target: T1, RPA70N (N-terminal domain of RPA70, RPA70N1–120) (Homo sapiens, UniProt P27694); settings: RPA70N binding, cited from earlier work
T1 construct: RPA70N1–120 and RPA70A181–304 were expressed and purified as described previously; made in house

[4] = biological target: T2, RPA70N_(1–120), N-terminal domain of RPA70 (DBD-F) (UniProt P27694 1-120); test: fluorescence polarisation; FPA; 0–150 μM RPA70N or RPA70A titrated to 50 nM FITC-labeled peptide; 20 mM HEPES, 100 mM NaCl, 2 mM DTT, pH 7.4; 1 h at 25 °C; one site–specific fit; settings: both partners purified
T2 construct: Replication protein A 70-kDa subunit (RPA70), N-terminal domain (DBD-F), residues 1-120; Uniformly 15N-labelled in the NMR titrations, unlabelled in the FPA assays; also called 15N-labeled RPA70N; source: 15N-labeled form by the same method using M9 medium

[5] = biological target: T2, RPA70N_(1–120), N-terminal domain of …; test: as above; settings: both partners purified; remark: listed apart in the source
[6] = biological target: T2, RPA70N_(1–120), N-terminal domain of …; test: fluorescence polarisation; competitive FPA; 0–250 μM unlabeled pmRPA32 peptide added to 6 μM (for BLM 153-165) or 13 μM (for BLM 290-301) RPA70N and 500 nM FITC-labeled BLM peptide; 20 mM HEPES, 100 mM NaCl, 2 mM DTT, pH 7.4; settings: both partners purified
[7] = measured with the same FPA method

C[C@H](NC(=O)CNC(=O)CNC(=O)[C@H](Cc1ccc(O)cc1)NC(=O)[C@H](CC(=O)O)NC(=O)[C@H](CC(=O)O)NC(=O)[C@H](CC(=O)O)NC(=O)CNC(=O)[C@H](Cc1ccc(O)cc1)NC(=O)[C@H](CC(=O)O)NC(=O)CCCCCNC(=S)Nc1ccc2c(c1)C(=O)OC21c2ccc(O)cc2Oc2cc(O)ccc21)C(=O)NCC(=O)NCC(=O)N[C@@H](Cc1ccc(O)cc1)C(=O)N[C@@H](CC(=O)O)C(=O)N[C@@H](CCC(N)=O)C(=O)N[C@@H](CC(=O)O)C(=O)N1CCC[C@H]1C(=O)NCC(=O)NCC(=O)N[C@@H](Cc1ccccc1)C(=O)NCC(=O)N[C@@H](CC(=O)O)C(=O)N1CCC[C@H]1C(=O)N[C@@H](C)C(=O)N1CCC[C@H]1C(=O)N[C@@H](CC(=O)O)C(=O)O [pmRPA32]
Binding to RPA70A (in words) [1]: does not bind | Competition with FITC-labeled BLM peptide for RPA70N [2]: did not compete with BLM peptide

ATRIP54–68: RPA70N-binding sequence of ATRIP (DFTADDLEELDTLAS; UniProt Q8WXE1 54-68, looked up, fragment)
Kd [3]: 28.6 ± 3.1 µM

BLM153–165: acidic RPA70N-binding peptide from the N-terminal region of Bloom syndrome protein (DWDDMDDFDTSET; also: FITC via 6-aminohexanoic acid spacer, end not given here)
Kd [3, 7]: 5.76 ± 0.86 µM

BLM290–301: acidic RPA70N-binding peptide from the N-terminal region of Bloom syndrome protein (EFDDDDYDTDFV; also: FITC via 6-aminohexanoic acid spacer, end not given here)
Kd [3, 7]: 13.5 ± 2.4 µM

MRE11_539–553: RPA70N-binding sequence of MRE11 (AFSADDLMSIDLAEQ; UniProt P49959 539-553, looked up, fragment)
Kd [3]: 65.8 ± 23.7 µM

RAD9_297–311: RPA70N-binding sequence of RAD9 (DFANDDIDSYMIAME; UniProt Q99638 297-311, looked up, fragment)
Kd [3]: 51.4 ± 8.9 µM

p53_44–58: RPA70N-binding sequence of p53
Kd [3]: 99.9 ± 8.4 µM

DYGDDDYGGAGGYDQDPGGAGDPAPD (peptide, UniProt P15927 8-33, looked up, also: FITC with 6-aminohexanoic acid spacer, end not given here) [FITC-labeled pmRPA32-F27A peptide]
Kd [4]: 21.7 ± 0.5 µM

DYGDDDYGGAGGYDQDPGGFGDPAPD (peptide, UniProt P15927 8-33, looked up, also: FITC with 6-aminohexanoic acid spacer, end not given here) [FITC-labeled pmRPA32_(8–33) peptide (phosphomimetic RPA32, eight aspartic acids)]
Kd [5]: 21.5 ± 0.6 µM

DYGDDDAGGAGGYDQDPGGFGDPAPD (peptide, UniProt P15927 8-33, looked up, also: FITC with 6-aminohexanoic acid spacer, end not given here) [FITC-labeled pmRPA32-Y14A peptide]
Kd [4]: 37 ± 0.6 µM

DAGDDDYGGAGGYDQDPGGFGDPAPD (peptide, UniProt P15927 8-33, looked up, also: FITC with 6-aminohexanoic acid spacer, end not given here) [FITC-labeled pmRPA32-Y9A peptide]
Kd [4]: 40 ± 0.7 µM

B1: FITC-labeled BLM_(290-301) peptide (peptide, UniProt P54132 290-301, looked up)
peptide: EFDDDDYDTDFV
modifications: also: FITC via 6-aminohexanoic acid spacer, end not given here
notes: also called BLM peptide; source: synthetic peptide, bought: AnyGen
binding result [6]: binds

B2: FITC-labeled BLM_(153-165) peptide (peptide, UniProt P54132 153-165, looked up)
peptide: DWDDMDDFDTSET
modifications: also: FITC via 6-aminohexanoic acid spacer, end not given here
notes: as for B1
binding result [6]: binds

DYGDDDYGGAGGADQDPGGFGDPAPD (peptide, UniProt P15927 8-33, looked up, also: FITC with 6-aminohexanoic acid spacer, end not given here) [FITC-labeled pmRPA32-Y20A peptide]
Kd [4]: 24.5 ± 0.7 µM

Source: paper PMC7939470 (The Journal of Biological Chemistry, 2021)
